The nature of this data set: yeast display, Sf9 membrane polyspecificity reagent, FACS + sequencing; frameworks hold sequencing errors. In a few lines:
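Using colony PCR, genes from sorted yeast display clones were amplified, then sequenced on MiSeq at 2 × 250 and filtered by CDR length. The clones had been stained with 10% biotinylated, detergent-solubilized Sf9 membrane reagent for 1 hour at 4 °C and sorted by FACS into low and high (top ~1%) gates on anti-HA and streptavidin fluorescence. Polyreactivity labels come from the gate of origin.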
As for “QVQLVESGGGLVQAGGSLRLSCAASGRTFRYYALGWYRQAPGKERELVASITGSGGSTTYADSVKGRFTISRDNAKNTVYLLMNSLKPEDTAVYYCAVRYPYYSYRAKLGYWGQGTQVTVSS”, the “polyreactivity (PSR sort gate)” value was “high polyreactivity”.
For “QVQLVESGGGLVQAGGSLRLSCAASGRTFRYYAMGRSRQAPGTERELVAAISRSGGRTNYADSVKGRFTISRDNAKNTVYLQMNSLIPEDTAVDYCAADFRYTFDSWGQGTQVTVSS”, the “polyreactivity (PSR sort gate)” value was “high polyreactivity”.
“QVQLVESGGGLVQAGGSLRLSCAASGRTFRYYAMGWYRQAPGKEREFVAAITKRGGSTYYADSVKGRFTISRDNAKNTVYLQMNSLKPEDTAVYYCAAYPAAQFSTFSYDSWGQGTQVTVSS”: the “polyreactivity (PSR sort gate)” value was “high polyreactivity”.
“QVQLVESGGGLVQAGGSLRLSCAASGRTFRYYAMGWYRQAPGKERELVAAIDTSSGSTYYADSVKGRFTISRDYAKNTVYLQMNSLKPEDTAVYYCNANWWIPLIYDYWGQGTQVTVSS”: the “polyreactivity (PSR sort gate)” value was “low polyreactivity”.
Take “QVQLVESGGGLVQAGGSLRLSCAASGRTFRYYAMGWYRQAPGKERELVAAISSRGNTYYADSVKGRFTISRDNAKNTVYLQLNSLKPEDTAVYYCAAYVYRVQYDFVYWGQGTQVTVSS”: the “polyreactivity (PSR sort gate)” value is listed as “high polyreactivity”.
Take “QVQLVESGGGLVQAGGSLRLSCAASGRTFRYYAMGWYRQAPGKERELVAAITGSGGSTYYADSVKGRFTISRDTAKNTVYLQMNSLKPEDTAVYYCATRWALRWRGGYWGQGTQVTVSS”: the “polyreactivity (PSR sort gate)” value is “high polyreactivity”.
On to “QVQLVESGGGLVQAGGSLRLSCAASGRTFRYYAMGWYRQAPGKERELVAAITVTVTSTFYADSVKGRFTISRDNAKNTVYLQMNSLKPEDTAVYYCAKVDRQYPGQYYYWGQGTQVTVSS”, for which the “polyreactivity (PSR sort gate)” value was “low polyreactivity”.
For “QVQLVESGGGLVQAGGSLRLSCAASGRTFRYYAMGWYRQAPGKERELVAAITWSVGSTYYADSVKGRFTISRDNAKNTVYLQMNSRKPEDTAVYYCAADRVRGGYRTYYWVVHFDYWGQGTQVTVSS” the value was “high polyreactivity”.
In the case of “QVQLVESGGGLVQAGGSLRLSCAASGRTFRYYAMGWYRQAPGKERELVARISWRGDSTRYADSVKGRFTISRDNAKNTVYVQMNSLKPEDTAVYYCAADTRFLVGPDKYGYWGQGTQVTESS”, the “polyreactivity (PSR sort gate)” value is given as “high polyreactivity”.
As for “QVQLVESGGGLVQAGGSLRLSCAASGRTFRYYAMGWYRQAPGKERELVATSTGSGGSTYYADSVKGRFTISRDNSKNTVYLQMNSLKPEDTAVYYCNARKVRYPYRWYDYWGQGTQVTVSS”, the “polyreactivity (PSR sort gate)” value is reported as “high polyreactivity”.
Take “QVQLVESGGGLVQAGGSLRLSCAASGRTFRYYAMGWYRQARGKERELVAAISKTGGSTYYADSVKGRFTISRDNAKNTVYLQMNSQKPEDTAVYYCAAQSGWGYSTFYYWGQGTQVTVSS”: the “polyreactivity (PSR sort gate)” value is “high polyreactivity”.
In the case of “QVQLVESGGGLVQAGGSLRLSCAASGRTFRYYSMGWYRQAPGKERELVAAITGSGARTYYADSVKGRFTISRDNAKNTVYLQMNSLKPEDTAVYYCAADSLFYDDRYDYWGQGTQVTVSS”, the “polyreactivity (PSR sort gate)” value is “high polyreactivity”.
Consider “QVQLVESGGGLVQAGGSLRLSCAASGRTFRYYTMGWYRQAPGKEREFVAAISSTGGTYYADSVKGRFTISRDNAKNTVYLLMNSLNPEDTAVYYCAATFIQVVVNVQLYDYDYWGQGTQVTVSS”, for which the “polyreactivity (PSR sort gate)” value was “low polyreactivity”.
For the sequence “QVQLVESGGGLVQAGGSLRLSCAASGRTFRYYTMGWYRQAPGKEREFVAAISSTGGTYYADSVKGRFTISRDNAKNTVYLQMNRLKPEDSAVYYCAATFIQVVVNVQLYDYDYWGQGTQVTVSS”, the “polyreactivity (PSR sort gate)” value is listed as “low polyreactivity”.
Take “QVQLVESGGGLVQAGGSLRLSCAASGRTFRYYTMGWYRQAPGKERELVAAITRNGGRTYYADSVKGRFTISRDNAKNTVDLQMNSLKPEDPAVYYCAPGTYDGGYHYDYWGQGTQVTVSS”: the “polyreactivity (PSR sort gate)” value was “high polyreactivity”.
In the case of “QVQLVESGGGLVQAGGSLRLSCAASGRTFRYYTMGWYRQAPGKERQFVAAISSTGGTYYADSVKGRFTISRDNAKNTVYLQMNSLKPADTAVYYCAATFIQVVVNVQLYDYDYWGQGTQVTVSS”, the “polyreactivity (PSR sort gate)” value is recorded as “low polyreactivity”.
For the sequence “QVQLVESGGGLVQAGGSLRLSCAASGRTFRYYVMGWYRPAPGKERELVASITSNGDSTYYADSVKGRFTISRDNAKNTVFLQWKSLKPEDTAVDYCAVRWRDYRGSYRGFEYWGQGSQVTVSS”, the “polyreactivity (PSR sort gate)” value was “high polyreactivity”.
On to “QVQLVESGGGLVQAGGSLRLSCAASGRTFRYYVMGWYRQAPGKERELVAGISGSGGNTYYADSVKGRFTISRDNAKNTVYLQMNSLKPEDTAVYYCAARQRGSVGVPYNSWGQGTQVTVSW”, for which the “polyreactivity (PSR sort gate)” value is “high polyreactivity”.
As for “QVQLVESGGGLVQAGGSLRLSCAASGRTFSANAMGWYRQAPGKDRELVAANRRTGGRTYYADSVKGRFTISRDNAKNTDYLQMNSLKPEDTAVYYCKAVNKPYTREYGYDYWGQGTQGTVSS”, the “polyreactivity (PSR sort gate)” value was “high polyreactivity”.
For “QVQLVESGGGLVQAGGSLRLSCAASGRTFSANAMGWYRQAPGKERELVATISSGGRTNYADSVKGRFTISRDNAKNTVYLQMNSLKPEDTAVYYCAKRGPYNRWYGRYDYWGQGTQVTVSS” the value was “low polyreactivity”; for “QVQLVESGGGLVQAGGSLRLSCAASGRTFSAYAMGWYRQAPGKEMELVARITSVDSTNYADSVKGRFTISRDNAKNTVYLQMNSLKPEDTAVYYCNATFGYPFVDYDDYWGQGTQVTVSS”, “low polyreactivity”.
Take “QVQLVESGGGLVQAGGSLRLSCAASGRTFSAYAMGWYRQAPGKERELVARITSVDSTNYADSVKGRFTISRDNAKNSVYLQMNSLKPEDTAVYDCNATFGYPFVDYDDYWGQGTQVTVSS”: the “polyreactivity (PSR sort gate)” value was “low polyreactivity”.
On to “QVQLVESGGGLVQAGGSLRLSCAASGRTFSENAMGWYRQAPGKERELVAAISGSGGRTYYADSVKGRFTISRDNAKNTVYLQMNILKPEDTAVYFCGKVTRYGSTYDYWGQGTQVTVSS”, for which the “polyreactivity (PSR sort gate)” value is reported as “high polyreactivity”.
For the sequence “QVQLVESGGGLVQAGGSLRLSCAASGRTFSFYAMGWYRQAPGKERELVAAISSGGGRTYYADSVKGRFTISRDNAKNTVYLQMHSLKPEDTAVYYCAAYRAYSGEFDYWGQGTQVTVSS”, the “polyreactivity (PSR sort gate)” value is reported as “high polyreactivity”.
As for “QVQLVESGGGLVQAGGSLRLSCAASGRTFSGNAMGWYRQAPGKERELVAAITSGSSTYYADSVKGRFTISRDNAKNTVYLQMNSLKPEDTAVYYCAARSVYGSSFLSYGYWGQGTQVTVSS”, the “polyreactivity (PSR sort gate)” value is “high polyreactivity”.
For “QVQLVESGGGLVQAGGSLRLSCAASGRTFSGNTMGWYRQAPGKERELVAAITGRGGSTYYADSVKGRFTISRDNANNTVYLQMNSLKPEDTAVYYCAALRYTFAGRFDYWGQGTQVTVSS” the value was “high polyreactivity”.
For the sequence “QVQLVESGGGLVQAGGSLRLSCAASGRTFSGYAMGWYRQAPGKERELVAAITNRGGTYYADSVKGRFTISRDNAKNTVYVQMNSLKPEDTAVYSCAAYKYYARWVRGYDSWGQGTQVTVSS”, the “polyreactivity (PSR sort gate)” value was “high polyreactivity”.
For the sequence “QVQLVESGGGLVQAGGSLRLSCAASGRTFSGYTMGWYRQAPGKERELVAGISRSGGRTYYADSVKGRFTISRDNAKKTVYLQMNSLKPEDTAVYYCATPYRRLNTWIYDYWGQGTQVTVSS”, the “polyreactivity (PSR sort gate)” value is reported as “high polyreactivity”.
For “QVQLVESGGGLVQAGGSLRLSCAASGRTFSGYVMGWYRQAPGKERELVATINGSGASTYYADSVKGRFTISRDNAKNTVYLQRKSLKPEDSAVYYCAAKRYRPKYEYYYWGQGTQVTVSS” the value was “high polyreactivity”; for “QVQLVESGGGLVQAGGSLRLSCAASGRTFSHNAMGWYRQAPGKERELVAAISRGGGTNYADSVKGRFTISRDNAKNTVYLQMNSLKPEDTAVYYCAAAGYDSNGRYYYWGQGTQVTVSS”, “high polyreactivity”.

The values are drawn from the nanobody polyreactivity screen of Harvey et al. (2022).
